The target of the assay is human CD8 on cells (HPBALL cells, TALL1 cells, CD8+ T cells of human whole blood and PBMCs) (human) (UniProt P01732). Description: flow cytometry of human whole blood, AF647-labeled OKT8 at 20 ng/mL against CD3 APC-Vio770.
Chain of human CD8 on cells (HPBALL cells, TALL1 cells, CD8+ T cells of human whole blood and PBMCs) (human) (P01732 22-234 limits assumed): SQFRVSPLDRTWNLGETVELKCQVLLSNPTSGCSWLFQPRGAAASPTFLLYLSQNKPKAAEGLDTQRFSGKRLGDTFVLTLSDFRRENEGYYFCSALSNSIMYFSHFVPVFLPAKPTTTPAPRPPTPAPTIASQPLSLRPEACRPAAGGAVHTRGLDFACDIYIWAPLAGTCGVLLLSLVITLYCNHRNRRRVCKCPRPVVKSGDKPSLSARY

B1: OKT8 anti-CD8 IgG labeled with ALEXA FLUOR 647 (antibody, from another filing, V domains shown)
VH: EVQLQQSGAELVKPGASVKLSCTASGFNIKDTYIHFVRQRPEQGLEWIGRIDPANDNTLYASKFQGKATITADTSSNTAYMHLCSLTSGDTAVYYCGRGYGYYVFDHWGQGTTLTVSS
VL: DVQINQSPSFLAASPGETITINCRTSRSISQYLAWYQEKPGKTNKLLIYSGSTLQSGIPSRFSGSGSGTDFTLTISGLEPEDFAMYYCQQHNENPLTFGAGTKLELK
B1 yielded a share of events in Q2 (CD3 positive, mAb/VHH AF647 positive) of 19.7% and a share of events in Q3 (CD3 negative, mAb/VHH AF647 positive) of 0.73%.
